How the values were obtained:
[1] = molecular target: MetVF heterodimer of the methylene-tetrahydrofolate reductase (MTHFR) from Clostridium ljungdahlii (Clostridium ljungdahlii (endogenous in C. ljungdahlii)); experiment: SEC; analytical gel filtration of the purified MTHFR on Superdex 200 Increase, column calibrated with high- and low-molecular weight kits; dimer of MetVF heterodimers
purified protein = substrate: Nc1nc2c(c(=O)[nH]1)N1CN(c3ccc(C(=O)N[C@@H](CCC(=O)O)C(=O)O)cc3)C[C@H]1CN2; experiment: purified protein; format: biochemical, Clostridium ljungdahlii; conditions: reduced ferredoxin as electron donor, 50 mM NaPi, 2 mM DTE, pH 7, 37 °C, methylene-THF made from formaldehyde and THF

Molecule “MetVF heterodimer of the methylene-tetrahydrofolate reductase (MTHFR) from Clostridium ljungdahlii (complex)” has a stoichiometry N [1] of 2.

B1: MetVF-type methylene-THF reductase (MTHFR) of C. ljungdahlii (Clostridium ljungdahlii DSM 13528) (protein)
chain: MSLLKEAFEKGEFAITAEMAPPKGTDLSHLIECAKKIKGRVQGVNVTDFQSATLKATSLATCKVLKDAGLEPVFQITGRDRNRIAIQGELLSAGVFEIENVLALTGDYTATGDHPGAKPVYDLDSVGILQVASILNGGKDMGGTDLKGKPDFFLGACVTPRYDPLELQVIKMKKKIKAGAKFFQTQAVYDMETLKKFKEETKAQGVDAKVMVGIIPLKSAGMAKYMNKNVPGIFVPDELIDRMKNAEDKVQEGIKIAGEFIKAVKESGLCDGVHIMAIGAEENVPLILDEAGL
notes: native enzyme purified from C. ljungdahlii cytoplasm, untagged; (MetVF)2 dimer of heterodimers, ~106 kDa native; MetF 33-35 kDa, MetV 23 kDa; FMN and 4Fe-4S clusters; with Methylene-tetrahydrofolate reductase C-terminal-like domain-containing protein
With B1 the K0.5 (purified protein) was 70 µM.

From article PMC8760232, “Is reduced ferredoxin the physiological electron donor for MetVF-type methylenetetrahydrofolate reductases in acetogenesis? A hypothesis” (International Microbiology, 2021)
